# B1: C-terminal domain (CTD) polypeptide of Arabidopsis thaliana metal tolerant protein 1 (AtMTP1) (domain or fragment, UniProt Q9ZT63 320-398, looked up)
# chain: MESTPREIDATKLEKGLLEMEEVVAVHELHIWAITVGKVLLACHVNIRPEADADMVLNKVIDYIRREYNISHVTIQIER
# Target: the molecule itself
# Test: cross-linking; SDS-PAGE of the purified CTD polypeptide: 16-kDa dimer band beside the 8-kDa monomer band; dimer formation stimulated by the oxidizing agent Cu(II)-(1,10-phenanthroline)3 and cleaved by dithiothreitol (disulfide bond)
protein,measurement,value
B1,stoichiometry N,2

# From publication PMC3668522 (FEBS Open Bio, 2013)
